US20230056486
Where “and” joins values, the source holds several entries; their conditions need not be identical. Equal values may be shown once.

Assays:
[1] = tested on: T1, (GR)10 dipeptide repeat peptide
T1 sequence: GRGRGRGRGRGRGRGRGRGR

Biotin-(PEG)4-(GR)10 = tested on: T2, Biotin-(PEG)4-(GR)10
T2 sequence: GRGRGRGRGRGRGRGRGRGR

Immobilized TPCK-trypsin on agarose resin; ThermoFisher Cat #20230, sequence (P00760 24-246): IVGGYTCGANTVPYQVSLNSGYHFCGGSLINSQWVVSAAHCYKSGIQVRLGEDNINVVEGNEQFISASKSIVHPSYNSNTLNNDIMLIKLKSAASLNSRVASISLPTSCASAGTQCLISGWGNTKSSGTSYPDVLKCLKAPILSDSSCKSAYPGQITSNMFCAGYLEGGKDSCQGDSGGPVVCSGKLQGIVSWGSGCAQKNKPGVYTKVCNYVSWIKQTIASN

trypsin
(GR)10 concentration left at 0 min (LC/MS; 50 µM start; TFA added before enzyme) [1]: 52.8 µM and 48.9 µM
(GR)10 concentration left at 5 min (LC/MS; 50 µM start) [1]: 2.2 µM and 2 µM
(GR)10 concentration left at 10 min (LC/MS; 50 µM start) [1]: BLQ
(GR)10 concentration left at 30 min (LC/MS; 50 µM start) [1]: BLQ
(GR)10 concentration left at 60 min (LC/MS; 50 µM start) [1]: BLQ
(GR)10 concentration left at 120 min (LC/MS; 50 µM start) [1]: BLQ
(GR)10 left in CSF; Trypsin-Immobilized-5 min reaction (LC/MS; 200 µM (GR)10 in human CSF) [1]: 0 µM
(GR)10 left in CSF; Trypsin-Immobilized-60 min reaction (LC/MS; 200 µM (GR)10 in human CSF) (normalized µM) [1]: -0
(GR)10 left; Trypsin-Immobilized-5 min reaction (LC/MS) [1]: 0 µM
(GR)10 left; Trypsin-immobilized-60 min reaction (LC/MS) [1]: 0 µM
(GR)10 left; Trypsin-in solution-5 min reaction (LC/MS) [1]: 0 µM
(GR)10 left; Trypsin-in solution-60 min reaction (LC/MS) [1]: 0 µM
(GR)10 left; Trypsin-resin wash from 5 min reaction (LC/MS) [1]: 6.6 µM
(GR)10 left; Trypsin-resin wash from 60 min reaction (LC/MS) [1]: 0 µM
conversion of (GR)10 to shorter GR repeats (LC/MS) [1]: Almost complete conversion to (GR)1 and (GR)2 was observed in 5 to 10 min using either 2.5 or 10 µg/mL of trypsin for concentrations 50 µM of (GR)10
proteolytic activity on (GR)10 of immobilized enzyme after storage at 4° C. for over 2 months (LC/MS) [1]: agarose resin having immobilized trypsin exhibited proteolytic activity after storage at 4 °C for over 2 months
digestion of biotin-(PEG)4-(GR)10 after 5 minutes, immobilized enzyme (LC/MS) (Biotin-(PEG)4-(GR)10): over 90% digestion of biotin-(PEG)4-(GR)10 after only 5 minutes of incubation time

Factor Xa
(GR)10 concentration left at 0 min (LC/MS; 50 µM start; TRIS buffer; TFA added before enzyme) [1]: 33.1 µM and 31 µM
(GR)10 concentration left at 5 min (LC/MS; 50 µM start; TRIS buffer) [1]: 35 µM and 23.5 µM
(GR)10 concentration left at 10 min (LC/MS; 50 µM start; TRIS buffer) [1]: 19.4 µM and 13.6 µM

thrombin (activated by thermolysin, quenched by EDTA)
(GR)10 concentration left at 0 min (LC/MS; 50 µM start; TFA added before enzyme) [1]: 37.7 µM and 52 µM
(GR)10 concentration left at 5 min (LC/MS; 50 µM start) [1]: 42.9 µM and 54.8 µM
(GR)10 concentration left at 10 min (LC/MS; 50 µM start) [1]: 46.7 µM and 59.4 µM
(GR)10 concentration left at 30 min (LC/MS; 50 µM start) [1]: 49.1 µM and 48.6 µM
(GR)10 concentration left at 60 min (LC/MS; 50 µM start) [1]: 56.2 µM and 55.2 µM
(GR)10 concentration left at 120 min (LC/MS; 50 µM start) [1]: 45.3 µM and 48.7 µM

elastase
(GR)10 concentration left at 0 min (LC/MS; 50 µM start; TFA added before enzyme) [1]: 53.8 µM and 41.6 µM
(GR)10 concentration left at 5 min (LC/MS; 50 µM start) [1]: 52.6 µM and 50.5 µM
(GR)10 concentration left at 10 min (LC/MS; 50 µM start) [1]: 52.5 µM and 37.8 µM
(GR)10 concentration left at 30 min (LC/MS; 50 µM start) [1]: 43.6 µM and 21.1 µM
(GR)10 concentration left at 60 min (LC/MS; 50 µM start) [1]: 35.3 µM and 12.2 µM
(GR)10 left in CSF; Elastase-Immobilized-5 min reaction (LC/MS; 200 µM (GR)10 in human CSF) (normalized µM) [1]: -0
(GR)10 left in CSF; Elastase-Immobilized-605 min reaction [as printed; 60 min meant] (LC/MS; 200 µM (GR)10 in human CSF) (normalized µM) [1]: -0
(GR)10 left; Elastase-Immobilized-5 min reaction (LC/MS) (µM (normalized to GR concentration)) [1]: -0
(GR)10 left; Elastase-immobilized-60 min reaction (LC/MS) (µM (normalized to GR concentration)) [1]: -0
(GR)10 left; Elastase-in solution-5 min reaction (LC/MS) [1]: 213 µM
(GR)10 left; Elastase-in solution-60 min reaction (LC/MS) (µM (normalized to GR concentration)) [1]: 21.6
(GR)10 left; Elastase-resin wash from 5 min reaction (LC/MS) (µM (normalized to GR concentration)) [1]: -0
(GR)10 left; Elastase-resin wash from 60 min reaction (LC/MS) (µM (normalized to GR concentration)) [1]: -0
proteolytic activity on (GR)10 of immobilized enzyme after storage at 4° C. for over 2 months (LC/MS) [1]: agarose resin having immobilized elastase did not exhibit substantial (GR)10 proteolytic activity at either 5 minute or 60 minute treatment times
digestion of biotin-(PEG)4-(GR)10 after 5 minutes, immobilized enzyme (LC/MS) (Biotin-(PEG)4-(GR)10): over 90% digestion of biotin-(PEG)4-(GR)10 after only 5 minutes of incubation time

Immobilized TPCK-trypsin on agarose resin; ThermoFisher Cat #20230
(GR)10 concentration left at 0 min (LC/MS; 50 µM start) [1]: 68.4 µM and 32.7 µM
(GR)10 concentration left at 10 min (LC/MS; 50 µM start) [1]: 2.1 µM and 1.6 µM
(GR)10 concentration left at 30 min (LC/MS; 50 µM start) [1]: 0.6 µM and 0.9 µM
(GR)10 concentration left at 120 min (LC/MS; 50 µM start) [1]: 0.1 µM
(GR)10 left in CSF; Commercial Trypsin-Immobilized-5 min reaction (LC/MS; 200 µM (GR)10 in human CSF) (normalized µM) [1]: -0
(GR)10 left in CSF; Commercial Trypsin-Immobilized-605 min reaction [as printed; 60 min meant] (LC/MS; 200 µM (GR)10 in human CSF) (normalized µM) [1]: -0
(GR)10 left; Commercial Trypsin-Immobilized-5 min reaction (LC/MS) [1]: 0 µM
(GR)10 left; Commercial Trypsin-immobilized-60 min reaction (LC/MS) [1]: 0 µM
(GR)10 left; Commercial Trypsin-resin wash from 5 min reaction (LC/MS) [1]: 0 µM
(GR)10 left; Commercial Trypsin-resin wash from 60 min reaction (LC/MS) [1]: 0 µM
digestion of (GR)10 to shorter GR repeats (LC/MS) [1]: Immobilized trypsin at 6.25 TAME Units digests (GR)10 to almost exclusively (GR)1 in 10 to 30 minutes
digestion of biotin-(PEG)4-(GR)10 after 5 minutes, immobilized enzyme (LC/MS) (Biotin-(PEG)4-(GR)10): over 90% digestion of biotin-(PEG)4-(GR)10 after only 5 minutes of incubation time

Kallikrein 6 (neurosin), autoactivated
(GR)10 concentration left at 0 min (LC/MS; 50 µM start; TFA added before enzyme) [1]: 27.8 µM and 54.7 µM
(GR)10 concentration left at 5 min (LC/MS; 50 µM start) [1]: 42.2 µM and 57.5 µM
(GR)10 concentration left at 10 min (LC/MS; 50 µM start) [1]: 50.1 µM and 60.8 µM
(GR)10 concentration left at 30 min (LC/MS; 50 µM start) [1]: 57.8 µM and 65 µM
(GR)10 concentration left at 60 min (LC/MS; 50 µM start) [1]: 54.2 µM and 71.5 µM
(GR)10 concentration left at 120 min (LC/MS; 50 µM start) [1]: 54.3 µM and 57.4 µM
